Experimental data taken from PMC12006300 (Nature Communications, 2025).

Target: T1, Recombinant human PDZD8 (1, 28–)—FLAG (human, UniProt Q8NEN9 1-1154, (1, 28–), ∆TM)
T1 sequence (looked up): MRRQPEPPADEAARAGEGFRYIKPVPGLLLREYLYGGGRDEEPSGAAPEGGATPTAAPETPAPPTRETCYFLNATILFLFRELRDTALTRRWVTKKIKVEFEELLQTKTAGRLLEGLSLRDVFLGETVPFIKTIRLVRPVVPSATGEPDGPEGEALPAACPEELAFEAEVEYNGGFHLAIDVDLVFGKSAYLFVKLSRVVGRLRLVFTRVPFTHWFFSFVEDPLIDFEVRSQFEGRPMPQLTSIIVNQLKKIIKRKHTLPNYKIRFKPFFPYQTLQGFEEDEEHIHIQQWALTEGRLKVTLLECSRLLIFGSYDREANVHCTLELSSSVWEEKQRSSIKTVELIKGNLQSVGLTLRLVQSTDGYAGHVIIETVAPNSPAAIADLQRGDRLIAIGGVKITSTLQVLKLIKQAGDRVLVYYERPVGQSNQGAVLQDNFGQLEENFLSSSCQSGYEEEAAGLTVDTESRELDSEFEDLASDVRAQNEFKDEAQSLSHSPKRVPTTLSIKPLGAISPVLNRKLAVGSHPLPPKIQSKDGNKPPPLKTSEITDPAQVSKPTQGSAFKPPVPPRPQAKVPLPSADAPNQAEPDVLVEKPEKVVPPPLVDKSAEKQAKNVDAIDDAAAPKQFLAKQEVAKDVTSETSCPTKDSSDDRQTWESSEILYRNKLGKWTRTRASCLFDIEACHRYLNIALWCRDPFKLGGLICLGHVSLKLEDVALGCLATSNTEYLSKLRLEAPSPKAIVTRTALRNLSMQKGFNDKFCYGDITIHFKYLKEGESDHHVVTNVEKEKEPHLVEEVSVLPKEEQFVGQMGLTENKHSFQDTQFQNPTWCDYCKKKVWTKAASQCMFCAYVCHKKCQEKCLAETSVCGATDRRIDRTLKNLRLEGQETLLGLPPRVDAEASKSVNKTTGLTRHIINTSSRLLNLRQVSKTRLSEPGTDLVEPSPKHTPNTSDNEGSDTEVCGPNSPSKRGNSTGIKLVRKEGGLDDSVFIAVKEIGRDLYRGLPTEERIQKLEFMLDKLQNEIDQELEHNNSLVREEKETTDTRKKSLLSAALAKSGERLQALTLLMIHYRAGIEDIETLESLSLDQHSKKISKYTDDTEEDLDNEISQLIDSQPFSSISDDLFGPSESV
Assay: SPR

Kd: 142 µM
B1: Recombinant human FKBP8 (1–380)—Histag (domain or fragment, UniProt Q14318 1-380, looked up)
chain: MASCAEPSEPSAPLPAGVPPLEDFEVLDGVEDAEGEEEEEEEEEEEDDLSELPPLEDMGQPPAEEAEQPGALAREFLAAMEPEPAPAPAPEEWLDILGNGLLRKKTLVPGPPGSSRPVKGQVVTVHLQTSLENGTRVQEEPELVFTLGDCDVIQALDLSVPLMDVGETAMVTADSKYCYGPQGRSPYIPPHAALCLEVTLKTAVDGPDLEMLTGQERVALANRKRECGNAHYQRADFVLAANSYDLAIKAITSSAKVDMTFEEEAQLLQLKVKCLNNLAASQLKLDHYRAALRSCSLVLEHQPDNIKALFRKGKVLAQQGEYSEAIPILRAALKLEPSNKTIHAELSKLVKKHAAQRSTETALYRKMLGNPSRLPAKCPG
